We go through one sequence from PMC4802922.

This series has as its target Dnmt3a-CD wt;Dnmt3L (Mus musculus;) (UniProt O88508+Q9CWR8). The experiment in a line: 2-aminopurine fluorescence (base flipping). The following applies: 0.1 mM AdoMet; N15 of strand 1 = 2-aminopurine (replaces target C); C15 of strand 2 = 5-methylcytosine; Fluorescence polarization: 10 nM duplex, 0.1 mM AdoHcy, Dnmt3a reaction buffer (composition not given), 25 °C; enzyme up to 600-800 nM.

Dnmt3a-CD wt;Dnmt3L (Mus musculus;), sequence (O88508 608-908, chain 1 of 2): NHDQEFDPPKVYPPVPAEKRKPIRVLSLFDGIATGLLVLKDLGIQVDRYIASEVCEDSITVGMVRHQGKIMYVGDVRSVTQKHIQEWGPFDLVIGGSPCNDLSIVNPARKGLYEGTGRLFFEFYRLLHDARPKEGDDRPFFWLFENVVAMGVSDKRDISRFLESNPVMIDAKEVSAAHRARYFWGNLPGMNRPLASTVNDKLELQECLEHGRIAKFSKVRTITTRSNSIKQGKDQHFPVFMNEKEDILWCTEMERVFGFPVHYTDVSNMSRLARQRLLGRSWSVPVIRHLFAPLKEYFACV
Dnmt3a-CD wt;Dnmt3L (Mus musculus;), sequence (Q9CWR8 whole entry, chain 2 of 2): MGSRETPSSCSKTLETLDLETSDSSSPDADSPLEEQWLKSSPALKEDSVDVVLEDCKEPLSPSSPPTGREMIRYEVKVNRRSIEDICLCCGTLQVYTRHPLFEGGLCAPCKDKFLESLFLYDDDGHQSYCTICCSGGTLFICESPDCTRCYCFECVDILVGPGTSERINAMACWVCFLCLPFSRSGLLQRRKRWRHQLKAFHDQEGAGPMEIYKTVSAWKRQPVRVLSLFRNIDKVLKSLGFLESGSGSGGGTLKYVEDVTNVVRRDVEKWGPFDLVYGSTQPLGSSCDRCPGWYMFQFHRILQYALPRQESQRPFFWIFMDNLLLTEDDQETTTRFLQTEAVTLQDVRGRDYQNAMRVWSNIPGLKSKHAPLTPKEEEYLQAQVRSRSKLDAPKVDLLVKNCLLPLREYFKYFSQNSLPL

The sequence “CTGAATACTACTTGNGCTCTCTAACCTGAT / ATCAGGTTAGAGAGCGCAAGTAGTATTCAG [GBGC/CGMG]” came in with a binding signal of 100%.
